In patent US20240084005A1 (ALLAKOS, published 2024):

How the values were obtained:
[1] = target: T1, Siglec-6 (antigen of Example 8) (human, UniProt O43699 27-347, limits assumed); experiment: Siglec-6 binding ELISA after 1 week of forced degradation (elevated temperature, low pH); 1 week of forced degradation (elevated temperatures and low pH)
[2] = target: T1, Siglec-6 (antigen of Example 8); experiment: Siglec-6 binding ELISA after 2 weeks of forced degradation (elevated temperature, low pH)
Experimental: AK20 and AK21 were further evaluated in a forced degradation stability study. AK20 and AK21 (both using a wild-type human IgG1 Fc region with normal fucosylation) were incubated for 2 weeks at elevated temperatures and low pH followed by assessment of activity using a Siglec-6 binding ELISA.

[3] = target: T1, Siglec-6 (antigen of Example 8); experiment: Siglec-6 binding ELISA after 1 week of forced degradation (elevated temperature, low pH)
Siglec-6 ECD Fc protein = target: T2, Siglec-6 ECD Fc protein (human, UniProt O43699 27-347); experiment: BLI (Octet Red 384), bivalent IgG on immobilized Siglec-6 ECD Fc
T2 construct: also called Siglec-6 full ECD fused to a human Fc; not shown: human Fc
T2 sequence (O43699 27-347): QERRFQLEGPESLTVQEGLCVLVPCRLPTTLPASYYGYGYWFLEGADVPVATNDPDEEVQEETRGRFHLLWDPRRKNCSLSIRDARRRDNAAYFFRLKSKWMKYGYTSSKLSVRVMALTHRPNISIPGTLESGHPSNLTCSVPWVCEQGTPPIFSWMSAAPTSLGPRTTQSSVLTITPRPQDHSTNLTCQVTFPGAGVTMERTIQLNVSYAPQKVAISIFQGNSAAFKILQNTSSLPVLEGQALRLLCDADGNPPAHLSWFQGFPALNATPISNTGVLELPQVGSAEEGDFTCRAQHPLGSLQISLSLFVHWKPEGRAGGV
Experimental: Bivalent binding affinities of IgG for Siglec-6 mAbs were measured by biolayer interferometry using a FortéBio Octet Red 384 instrument using immobilized Siglec-6 ECD Fc protein.

[4] = target: T3, Siglec-6 domain 1 fused to a human Fc (human, UniProt O43699 27-147); experiment: ELISA on Siglec-6 domain-human Fc fusions (Domain Mapping = 2)
T3 construct: also called domain 1 fusion protein; not shown: human Fc
T3 sequence (O43699 27-147 limits assumed): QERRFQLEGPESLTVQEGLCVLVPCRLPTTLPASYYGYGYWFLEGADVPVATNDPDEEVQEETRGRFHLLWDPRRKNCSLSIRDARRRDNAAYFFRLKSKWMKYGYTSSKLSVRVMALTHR
Experimental: Domain mapping was assessed by ELISA using recombinantly expressed Siglec-6 extracellular domains fused to a human Fc containing the full ECD, domains 1 and 2, or domain 1. Siglec-6 mAbs were tested for binding to each of these domain fusion proteins and assigned domains based on their specific binding properties. Siglec-6 mAbs that bound to all three fusion proteins were assigned domain 1 binders, mAbs that bound to full ECD and domains 1 and 2 were assigned domain 2 binders, and mAbs that bound to only the full ECD protein were assigned domain 3 binders.

T1 sequence (O43699 27-347 limits assumed): as the sequence (O43699 27-347) above

Binder | EC50 [1] [ng/mL] | EC50 [2] [ng/mL] | EC50 [3] [ng/mL] | Kd (Siglec-6 ECD Fc protein) [nM] | binding result [4]
AK20 (wild-type human IgG1 Fc) (antibody, V domains shown, Tested after forced degradation) VH: QVQLQESGPGLVKPSETLSLTCTVSGFSLTSYGVSWIRQPPGKGLEWIGVIWHDGSTSYHPSLKSRVTISRDTSKNQVSLKLSSVTAADTAVYYCASDGYSGTFAYWGQGTLVTVSS VL: QIVVTQSPATLSLSPGERATLSCTASSSVSSSYLHWYQQKPGQAPRLLIYSTSILASGIPARFSGSGSGTDFTLTISSLQPEDFAVYYCHQYHRSPYTFGQGTKLEIK | 6.5 | 6.4 |  |  | 
AK21 (wild-type human IgG1 Fc) (antibody, V domains shown, Tested after forced degradation) VH: QVQLQESGPGLVKPSETLSLTCTVSGFSLSSYGVSWIRQPPGKGLEWIGVIWHDGSTNYNPSLKSRVTISRDTSKNQVSLKLSSVTAADTAVYYCASDGYSGTFAYWGQGTLVTVSS VL: QIVVTQSPATLSLSPGERATLSCTASSSVSSSYLHWYQQKPGQAPRLLIYSTSILASGIPARFSGSGSGTDFTLTISSLQPEDFAVYYCHQYHRSPYTFGQGTKLEIK |  | 9.3 | 9.1 |  | 
AK10 (antibody, V domains shown, also called anti-Siglec-6 mAb AK10) VH: EVQLQQSGPELMKPGASVKISCKASGYTFTDYYMNWVKQSHGKSLEWIGDINPKIGDTIYNQKFKGKATLTVDKSSSTAYMELRSLTSEDSAVYYCARWDYYGSSLFDYWGQGTTLTVSS VL: DIVMTQSHKFMSTSVGDRVSITCKASQDVTTAVAWYQQKPGQSPKLLIYWASTRHTGVPDRFTGTGSGTDYTLTISNVQAEDLALYYCQQHYSTPYTFGGGTKLEIK |  |  |  | 0.084 | no binding
